{
  "source": "patent US20230355708A1",
  "about": "(DREXEL UNIVERSITY, published 2023)",
  "binders": {"B1": {"name": "Cyanovirin-N (CV-N) (other)", "chain": "LGKFSQTCYNSAIQGSVLTSTCERTNGGYNTSSIDLNSVIENVDGSLKWQPSNFIETCRNTQLAGSSELAAECKTRAQQFVSTKINLDDHIANIDGTLKYE"}},
  "molecular_target": "SARS-CoV-2 spike S2 subunit (SARS-CoV-2, UniProt P0DTC2 686-1213)",
  "test": "SPR, S2 anchored on low dextran chip, CVN injected at increasing concentrations",
  "data": [
    {"binder": "B1", "values": [
      {"measurement": "binding result", "value": "binds"}
    ]}
  ]
}
